Drawing on paper doi:10.1101/2021.09.27.461913v1, this text covers Km for one substance.

The data set relates to O=c1[nH]c(=O)c2[nH]cnc2[nH]1. The experiment in a line: cells, lysate or membranes. The note with it: labelled compound.

For the substance UapA (Aspergillus nidulans FGSC A4), the Km is 6 ± 2 µM.

In general, Km refers to the concentration of substrate that gives half-maximal velocity.
